Results reported in patent US20150315279A1 (CELLERANT THERAPEUTICS, published 2015).
No end group written: not given here.

Legend:
[1] = target: T1, 12-mer peptide VPAPRYTVELAC (human); experiment: ELISA, peptide adsorbed on the plate
T1 construct: also called unconjugated peptide
T1 peptide: VPAPRYTVELAC
Protocol: Peptide was conjugated to Keyhole Limpet Hemocyanin (KLH) using methods known in the art. Unconjugated peptide, KLH-peptide, and KLH were then adsorbed onto different wells of a MAXIBIND 96-well ELISA plate, which was then blocked with 1% BSA. Anti-IL1RAP antibody 1F5 was then added to the wells followed by an incubation and a wash. After the wash, donkey-anti-mouse-HRP was added to the wells at a 1:50,000 dilution followed by an incubation and a wash. Color was developed with TMB substrate. The reaction was quenched with acid and the plate was read at 450 nm.

[2] = target: T2, human interleukin 1 receptor accessory protein, membrane-bound (receptor) form on cells (human, UniProt Q9NPH3 21-570); experiment: flow cytometry on BMMC or PBMC of AML patients, 1F5 at 2 µg/mL
T2 construct: also called IL1RAP; receptor IL1RAP
T2 sequence: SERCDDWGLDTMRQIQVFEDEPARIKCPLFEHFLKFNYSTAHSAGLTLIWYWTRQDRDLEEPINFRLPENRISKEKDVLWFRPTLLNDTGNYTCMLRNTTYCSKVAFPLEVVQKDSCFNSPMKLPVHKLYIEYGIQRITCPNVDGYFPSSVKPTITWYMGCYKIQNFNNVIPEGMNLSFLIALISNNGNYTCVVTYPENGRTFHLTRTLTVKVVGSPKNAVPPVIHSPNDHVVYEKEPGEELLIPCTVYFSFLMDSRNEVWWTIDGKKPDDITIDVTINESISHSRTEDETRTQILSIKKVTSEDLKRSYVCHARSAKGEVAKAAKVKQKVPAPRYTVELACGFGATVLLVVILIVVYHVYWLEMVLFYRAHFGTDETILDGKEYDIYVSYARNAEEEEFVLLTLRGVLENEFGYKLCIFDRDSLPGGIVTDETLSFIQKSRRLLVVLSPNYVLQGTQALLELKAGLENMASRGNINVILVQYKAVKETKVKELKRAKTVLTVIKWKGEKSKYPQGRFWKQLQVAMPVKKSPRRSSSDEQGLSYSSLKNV
Protocol: Bone Marrow-Derived […] (BMMC) or Peripheral Blood Mononuclear Cells (PBMC) were isolated by Ficoll separation (GE Healthcare) from bone marrow aspirate or whole blood respectively of AML patients. Cells were resuspended in staining solution (HBSS, 1% BSA, 1 mM EDTA) to 2×10⁶ cells/mL and blocked with mouse and rat IgG prior to staining. Unconjugated IgG2a or 1F5 antibodies were added to each tube to a final concentration of 2 μg/mL. 50 μL of the cell solution was added to each tube and incubated on ice for 30 min (each stage of incubation was 30 min). Cells were washed with staining solution and resuspended in 100 μL of staining solution with a […] concentration of anti-mouse-PE secondary. Cells were washed with staining solution and resuspended in 100 μL of staining solution with 5 μL each of CD34-FITC, CD45-APC and CD38-APC (BD). Cells were washed with staining solution and resuspended in 200 μL. Cells were immediately applied to flow cytometry for analysis.

peptide AC Pep-1 = target: T3, peptide AC Pep-1 (human); experiment: ELISA of hybridoma supernatant on peptide AC Pep-1
T3 peptide: VKQKVPAPRYTVELAC

[3] = target: T4, extracellular domain (ECD) form of IL1RAP (human, UniProt Q9NPH3 21-367); experiment: ELISA, IL1RAP captured by goat anti-human IL1RAP polyclonal, 1F5 at 1 µg/ml
T4 construct: also called ECD of IL1RAP; ECD IL1RAP
T4 sequence: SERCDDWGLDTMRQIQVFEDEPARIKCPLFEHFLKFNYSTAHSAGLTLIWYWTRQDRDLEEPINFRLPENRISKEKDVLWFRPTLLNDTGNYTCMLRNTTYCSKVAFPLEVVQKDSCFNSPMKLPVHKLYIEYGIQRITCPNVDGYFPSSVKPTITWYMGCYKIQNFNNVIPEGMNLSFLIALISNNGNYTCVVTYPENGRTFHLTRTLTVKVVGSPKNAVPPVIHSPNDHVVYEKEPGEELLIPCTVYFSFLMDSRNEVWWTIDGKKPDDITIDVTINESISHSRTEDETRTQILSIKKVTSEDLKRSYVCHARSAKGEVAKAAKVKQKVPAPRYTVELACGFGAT
Protocol: Wells of a 96-well ELISA plate were coated with goat-anti-human IL1RAP polyclonal at 0.5 μg/ml and incubated overnight at 2-8° C. The coated wells were washed with PBS with 0.05% Tween-20, then blocked with 1% BSA. IL1RAP was added into the wells at 0.5, 1, or 2 μg/ml followed by an incubation and a 3×PBS wash. After the 3×PBS wash, antibody 1F5 was added to the wells at 1 μg/ml followed by an incubation and a 3×PBS wash. After the 3×PBS wash, donkey-anti-mouse-HRP was added to the wells at a 1:50,000 dilution followed by an incubation and a 3×PBS wash. Color was developed with TMB substrate. The reaction was quenched with acid and the plate was read at 450 nm.

[4] = target: T5, soluble (secreted) form of IL1RAP in normal human serum (human, UniProt Q9NPH3 21-350); experiment: sandwich ELISA with normal human serum
T5 construct: Natural protein captured from human serum; also called IL1RAP from NHS; natural secreted form of IL1RAP in human serum
T5 sequence: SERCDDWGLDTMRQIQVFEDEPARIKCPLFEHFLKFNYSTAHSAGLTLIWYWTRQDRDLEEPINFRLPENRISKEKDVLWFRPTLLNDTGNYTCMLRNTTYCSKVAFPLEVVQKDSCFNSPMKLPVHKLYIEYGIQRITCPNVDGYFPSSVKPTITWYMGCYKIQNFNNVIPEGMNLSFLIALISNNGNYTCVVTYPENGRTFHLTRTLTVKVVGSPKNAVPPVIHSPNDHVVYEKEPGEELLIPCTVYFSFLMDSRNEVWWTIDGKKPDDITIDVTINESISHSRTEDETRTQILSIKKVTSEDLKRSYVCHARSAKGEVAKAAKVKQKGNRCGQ

[5] = target: T6, ACPep-1 conjugated to KLH (human, also: conjugated to KLH, site and chemistry not given here); experiment: ELISA, antigen coated at 2 ug/ml, antibody at 20 ug/ml
T6 construct: Peptide-carrier conjugate; also called ACPep-1-KLH; ACPep-1 conjugated KLH; not shown: Keyhole limpet hemocyanin (KLH) carrier
T6 peptide: VKQKVPAPRYTVELAC
Protocol: (§1) An ELISA was performed to further determine the specificity of monoclonal antibodies 4G9, 12F1, and 42E1. Wells of 96-well plate were coated with the secreted form of IL1RAP, ECD form of IL1RAP, ACPep-1 conjugated to KLH, or unconjugated KLH at 2 ug/ml overnight at 2-8° C. The coated wells were washed with PBS with 0.05% Tween-20, and then blocked with 1% BSA. Purified test antibodies 4G9, 12F1 and 42E1 were diluted to 20 ug/ml, added to wells coated with various proteins, and incubated at RT for 1 hr. Antibody 12G6, which binds to both the ECD and the secreted form of IL1RAP, was added as a control. Mouse IgG1 was also added as an isotype control. After incubation and PBS washes, donkey anti-mouse-HRP polyclonal antibodies were added. Color was developed with TMB substrate after incubation and PBS washes. The reaction was quenched with acid and the plate was read at 450 nm.

[6] = target: T7, secreted form of IL1RAP (recombinant) (human, UniProt Q9NPH3 21-350); experiment: ELISA, antigen coated at 2 ug/ml
T7 construct: also called recombinant form of the secreted IL1RAP; soluble IL1RAP
T7 sequence: T5 sequence
Protocol: as §1

[7] = target: T7, secreted form of IL1RAP (recombinant); experiment: ELISA, antigen captured by goat anti-human IL1RAP polyclonal, serially diluted antibody
From the text: (§2) The binding specificity of purified 4B6 was confirmed by ELISA assays described below. Wells of 96-well plate were coated with goat-anti-human IL1RAP polyclonal antibodies to capture various forms of IL1RAP. Forms of IL1RAP captured were (a) ECD form of IL1RAP, (b) the secreted form IL1RAP, and (c) human serum containing the secreted form of IL1RAP. Each captured form was then reacted with serially diluted tested antibody 4B6, control antibody 12G6, or a mouse IgG1 isotype control antibody. After incubation and washing, wells were reacted with secondary donkey-anti-mouse-HRP polyclonal antibodies. Color was developed with TMB substrate after incubation and PBS washes.

[8] = target: T5, soluble (secreted) form of IL1RAP in …; experiment: ELISA, antigen captured from human serum by goat anti-human IL1RAP polyclonal, serially diluted antibody
From the text: as §2

B1: anti-receptor IL1RAP antibody clone 1F5 (antibody, V domains shown)
VH: EVKLVESGGGLVKPGASLKLSCAASGFTFSNYGMSWVRQTSDKRLEWVASISSGGGSTYYPDNVKGRFTISRENAKNTLYLQMSSLKSEDTALYYCARVLPGRWAMDYWGQGSSVTVSS
VL: DVVMTQTPLSLPVSLGDQASISCRSSQSLVHINGNTYLHWYLQKPGQSPKLLIYKVSNRFSGVPDRFSGSGSGTDFTLKISRVEAEDLGVYFCSQSTHVPWTFGGGTKLEIK
notes: Mouse monoclonal antibody from a hybridoma (A/J mice immunised with AC Pep-1-KLH); IgG2a was used as its control in flow cytometry; Hybridoma supernatants were used in some assays; also called anti-IL1RAP antibody 1F5; 1F5 supernatants
binding result [1]: binds
binding result [2]: binds
binding result (peptide AC Pep-1): binds
binding result [3]: binds
binding result [4]: no binding

B2: monoclonal antibody 4G9 (antibody, V domains shown)
VH: QVQLQQSGTELVRPGASVKLSCKASGYTFTDYEMHWVKQTPVHGLEWIGAIDPGTGGIAYNQKFKGKATLTADKSSSTAYMELRSLTSEDSAVYYCTLYDYDLAYWGQGTLVTVSA
VL: DVLMTQTPLSLPVSLGDQASISCRSSQSIVHSNGNTYLEWFLQKPGQSPKLLIYTVSNRFSGVPDRFSGSGSGTDFTLKISRVEAEDLGVYYCFQGSHVPPTFGGGTKLEIK
binding result [5]: binds
binding result [6]: no binding (tested: 20 ug/ml)

B3: monoclonal antibody 4B6 (antibody, V domains shown)
VH: EVKLVESGGGLVKPGGSLKLSCAASGFTFRTYAMSWVRQTPEKRLEWVASISSRGRIYYPDSVKGRFTISRDNARNILYLQMSSLRSEDTAMYYCARDGDYGSSYDYWGQGTTLTVSS
VL: DIQMTQSPSSLSASLGERVSLTCRASQDIGSSLNWLQQEPDGTIKRLIYATSSLDSGVPKRFSGSRSGSDYSLTISSLESEDFVDYYCLQYASSPWTFGGGTKLEIK
binding result [7]: no binding
binding result [8]: no binding
